According to patent publication US20210095028A1 (NANJING LEGEND BIOTECH, published 2021):
Numbering of substitutions follows the chain as printed.

T1: human TIGIT over-expressed on cells (human, UniProt Q495A1 22-244)
T1 construct: also called CHO-K1/human TIGIT cells; CHO cells expressing human TIGIT
T1 sequence: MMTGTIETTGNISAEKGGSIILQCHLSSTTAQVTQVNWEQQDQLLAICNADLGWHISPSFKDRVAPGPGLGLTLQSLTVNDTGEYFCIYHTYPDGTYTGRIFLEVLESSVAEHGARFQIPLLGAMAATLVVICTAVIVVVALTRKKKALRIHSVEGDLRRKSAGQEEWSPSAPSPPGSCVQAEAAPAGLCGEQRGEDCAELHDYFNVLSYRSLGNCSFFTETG

T2: Human TIGIT protein with HIS tag (human, UniProt Q495A1 22-141)
T2 construct: A soluble analyte is probably only the extracellular part; also called human TIGIT recombinant protein; not shown: HIS tag
T2 sequence: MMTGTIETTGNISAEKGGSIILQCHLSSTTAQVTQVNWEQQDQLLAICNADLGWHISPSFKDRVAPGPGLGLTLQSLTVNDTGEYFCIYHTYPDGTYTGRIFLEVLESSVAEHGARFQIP

B1: 64G1E9B4 (antibody, V domains shown)
VH: EVQLQQSGPELVKPGASVKISCKTSGYTFTEHVIHWVKQSHGKSLEWIGGFNPNHDGTIYNQIFRGKATLTVDKSSSTAYMELRSLTSEDSAVYFCTRAAKLLFAMDYWGQGTSVTVSS
VL: DIVMTQSHKFMSTSIGDRVSITCKASQHVSNAVVWYQQKPGQSPKLLIYSPSYRFTGVPDRFTGSGSGTDFTFTISSVQAEDLAVYYCQQHYSTPWTFGGGTKLEIK
notes: Mouse monoclonal antibody; also called mouse anti-human TIGIT monoclonal antibody 64G1E9B4
B2: 100C4E7D11 (antibody, V domains shown)
VH: EVMLVESGGGLVKPGGSLKLSCAASGFTFSFYTMSWVRQTPEKRLEWVATISSGGGSTYYSDSVKGRFTISRDNAKNNLYLQMTSLRSEDTALYYCSRSLPVDYWGQGTTLTVSS
VL: QIVLTQSPAIMSASLGERVTMTCTASSSVSSTYLHWYQQKPGSSPKLWIYSTSNLASGVPARFSGSGSGTSYSLTISSMEAEDAATYYCHLYHHSPYTFGGGTKLEIK
notes: Mouse monoclonal antibody; also called mouse anti-human TIGIT monoclonal antibody 100C4E7D11
B3: 83G6H11C12 (antibody, V domains shown)
VH: B2 VH
VL: B2 VL with T32S
notes: Mouse monoclonal antibody; also called mouse anti-human TIGIT monoclonal antibody 83G6H11C12
B4: 92E9D4B4 (antibody, V domains shown)
VH: B2 VH with S53G, S57D, S61P, S63N, T84S, S97A, Y104F
VL: B2 VL with L47F, L55M, L91Y, H94R
notes: Mouse monoclonal antibody; also called mouse anti-human TIGIT monoclonal antibody 92E9D4B4

target: T1, human TIGIT over-expressed on cells; test: FACS, CHO-K1 cells over-expressing human TIGIT
Protocol: (§1) The mixture was equilibrated for 30 minutes at room temperature and washed three times with FACS buffer (PBS containing 1% BSA). iFluor labeled goat anti-mouse IgG as the secondary antibody was added and incubated at room temperature for 45 min. Finally, the cells were washed 3 time with PBS, and the signal was read by FACS BD Calibur. Data was analyzed with PRISM™ (GraphPad Software, San Diego, Calif.) using non-linear regression and EC₅₀ values were calculated.

| Binder | Bottom (best-fit) | EC50 [nM] | Top (best-fit) |
| --- | --- | --- | --- |
| B1 | 15.3 | 0.61 | 113 |
| B2 | 14 | 0.81 | 107 |
| B3 | 9.57 | 0.68 | 115 |
| B4 | 7.99 | 0.8 | 97 |

target: T3, cynomolgus TIGIT over-expressed on CHO-K1 cells (cynomolgus, UniProt A0A7N9I9V4 89-312); test: FACS, CHO-K1 cells over-expressing cynomolgus TIGIT
T3 construct: whole, on cells; also called CHO-K1/cynomolgus TIGIT cells
T3 sequence (A0A7N9I9V4 entry or part of it): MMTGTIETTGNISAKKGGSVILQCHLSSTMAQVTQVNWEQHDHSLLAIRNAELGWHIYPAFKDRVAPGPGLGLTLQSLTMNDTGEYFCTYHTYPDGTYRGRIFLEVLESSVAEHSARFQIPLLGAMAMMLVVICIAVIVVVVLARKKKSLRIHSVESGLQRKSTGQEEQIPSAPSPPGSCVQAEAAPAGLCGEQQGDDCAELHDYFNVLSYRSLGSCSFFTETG
Protocol: as §1

| Binder | Bottom (best-fit) | EC50 [nM] | Top (best-fit) |
| --- | --- | --- | --- |
| B1 | 15.3 | 1.58 | 455 |
| B2 | 16.9 | 1.16 | 410 |
| B3 | 16.1 | 1 | 326 |
| B4 | 17.7 | 1.16 | 348 |

target: T1, human TIGIT over-expressed on cells; test: cell-based or functional assay

| Binder | IL-2 secretion in T cell activation, Bottom (best-fit) | IL-2 secretion in T cell activation, EC50 [nM] | IL-2 secretion in T cell activation, Top (best-fit) |
| --- | --- | --- | --- |
| B1 | 111 | 0.82 | 283 |
| B2 | 107 | 0.98 | 191 |
| B3 | 104 | 0.83 | 171 |
| B4 | 106 | 3.36 | 274 |

target: T2, Human TIGIT protein with HIS tag; test: SPR Biacore T200; antibody Fc-captured, TIGIT-His analyte
Protocol: Binding kinetics of mouse anti-human TIGIT monoclonal antibodies to human TIGIT were determined using a Surface Plasmon Resonance (SPR) biosensor, BIACORE® T200 (GE Healthcare; Little Chalfont, United Kingdom). […] Each mouse anti-human TIGIT monoclonal antibody was immobilized on the sensor chip through the Fc capture method. Human TIGIT protein with HIS tag was used as the analyte. The dissociation (kd) and association (kₐ) rate constants were obtained using the BIACORE® T200 evaluation software. The apparent equilibrium dissociation constants (KD) were calculated from the ratio of kd over kₐ.

| Binder | Kd [nM] | koff [s⁻¹] | kon [M⁻¹ s⁻¹] |
| --- | --- | --- | --- |
| B1 | 0.23 | 0.00015 | 650000 |
| B2 | 0.51 | 0.00033 | 650000 |
| B3 | 0.7 | 0.00043 | 610000 |
| B4 | 0.57 | 0.00041 | 710000 |

target: T1, human TIGIT over-expressed on cells; test: competition FACS, CHO cells expressing human TIGIT; competitor PVR recombinant protein
Protocol: The mixture was equilibrated for 30 minutes at room temperature, and washed three times with FACS buffer (PBS containing 1% BSA). PE/Cy5 Streptavidin secondary antibody was then added to the mixtures and incubated for 15 minutes at room temperature. Subsequently, the cells were washed with FACS buffer and analyzed by flow cytometry. Data was analyzed with PRISM™ (GraphPad Software, San Diego, Calif.) using non-linear regression, and IC₅₀ values were calculated (FIGS. 4A-4B and Table 6).

| Binder | Bottom (best-fit) | IC50 [nM] | Top (best-fit) |
| --- | --- | --- | --- |
| B1 | 9.5 | 1 | 67.1 |
| B2 | 12.9 | 1.2 | 66.5 |
| B3 | 12.9 | 0.7 | 70.2 |
| B4 | 10.3 | 2 | 65.5 |

target: T1, human TIGIT over-expressed on cells; test: cell-based or functional assay; remark: another data set of the same source

| Binder | luciferase signal in T cell activation, Bottom (best-fit) | luciferase signal in T cell activation, EC50 [nM] | luciferase signal in T cell activation, Top (best-fit) |
| --- | --- | --- | --- |
| B1 | 5.7 | 1.64 | 124 |
| B2 | 11.6 | 3.46 | 117 |
| B3 | 9.6 | 4.4 | 145 |
| B4 | 3.4 | 3.9 | 141 |
